Test results reported in the supplement of paper PMC7125110.
± gives the standard error. For some of these results: Variants at the floor of the assay were thinned out.

B1: glmS ribozyme (parent)
chain: AUAAAAGCGCCAGAACUACAGAAAUGUAGUUGACGAGGAGGAGGUUUAUCGAAUUUUCGGCGGAUGCCUCCAAA

Tests used:
Settings in all cases: with glucosamine-6-phosphate
glucosamine-6-phosphate [1] = variants of: B1; experiment: kcat; higher = faster cleavage; RNA array
Procedure, shortened: (§1)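 Barcoded ribozyme variants on sequenced MiSeq chips were transcribed in situ by E. coli RNA polymerase and followed at 37 °C through a hybridised Cy3 probe. Glucosamine-6-phosphate at 40 μM to 10 mM in HEPES/KCl/Mg(OAc)2 buffer was flowed in, and tiles were imaged over ~14 h. Signals were normalised to baseline and to non-cleaving reference variants, and per-tile medians were fit to one- or two-exponential decays to give kobs. Weighted Michaelis–Menten fits across concentrations gave kcat and KM.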

glucosamine-6-phosphate [2] = variants of: B1; experiment: self-cleavage kobs at 640 uM GlcN6P; higher = faster cleavage; RNA array
Procedure, shortened: as §1

glucosamine-6-phosphate [3] = variants of: B1; experiment: self-cleavage kobs at 2500 uM GlcN6P; higher = faster cleavage; RNA array
Procedure, shortened: as §1

glucosamine-6-phosphate [4] = variants of: B1; experiment: self-cleavage kobs at 10000 uM GlcN6P; higher = faster cleavage; RNA array
Procedure, shortened: as §1

glucosamine-6-phosphate [5] = variants of: B1; experiment: KM; higher = weaker cofactor use; RNA array
Procedure, shortened: as §1

glucosamine-6-phosphate [6] = variants of: B1; experiment: self-cleavage kobs at 40 uM GlcN6P; higher = faster cleavage; RNA array
Procedure, shortened: as §1

glucosamine-6-phosphate [7] = variants of: B1; experiment: self-cleavage kobs at 160 uM GlcN6P; higher = faster cleavage; RNA array
Procedure, shortened: as §1

Row | Variant | kcat (glucosamine-6-phosphate [1]) [s⁻¹] | self-cleavage kobs at 640 uM GlcN6P (glucosamine-6-phosphate [2]) [s⁻¹] | self-cleavage kobs at 2500 uM GlcN6P (glucosamine-6-phosphate [3]) [s⁻¹] | self-cleavage kobs at 10000 uM GlcN6P (glucosamine-6-phosphate [4]) [s⁻¹] | KM (glucosamine-6-phosphate [5]) [µM] | self-cleavage kobs at 40 uM GlcN6P (glucosamine-6-phosphate [6]) [s⁻¹] | self-cleavage kobs at 160 uM GlcN6P (glucosamine-6-phosphate [7]) [s⁻¹]
1 | C10G A52G U56A C70A | 1.68e-05 ± 4.2e-06 | – | – | – | – | – | –
2 | G29U G40C | 0.000254 ± 6.3e-05 | 0.000105 ± 2.4e-05 | 0.000138 ± 3.6e-05 | 0.000281 ± 5.2e-05 | – | – | –
3 | A42G C58G | 0.000303 ± 2.3e-05 | – | 7.8e-05 ± 1.5e-05 | 0.00018 ± 2.6e-05 | 6970 ± 950 | – | –
4 | A39U A52U | 0.000201 ± 4.1e-05 | – | 9.27e-05 ± 1.2e-05 | 0.000141 ± 1.1e-05 | 3930 ± 1900 | – | –
5 | G29U G41C U54G C70G | 0.0128 ± 0.0056 | 0.00251 ± 0.00059 | 0.0068 ± 0.0018 | 0.0126 ± 0.0039 | – | 0.00037 ± 9.8e-05 | –
6 | A12C G32C | 2.92e-05 ± 1.3e-06 | – | – | 2.2e-05 ± 6.6e-06 | 3260 ± 500 | < 1e-05 | –
7 | U46A C71G | 0.00042 ± 3.7e-05 | 9.39e-05 ± 1.2e-05 | 0.00025 ± 3.5e-05 | 0.000346 ± 3.2e-05 | 2020 ± 370 | – | 4.33e-05 ± 1.2e-05
8 | C10U A39G | 3.18e-05 ± 4e-06 | – | 4.09e-05 ± 2e-05 | 2.93e-05 ± 8.6e-06 | – | < 1e-05 | –
9 | G29A A64G | 0.0066 ± 0.0018 | 0.000967 ± 0.00022 | 0.00217 ± 0.00041 | 0.00532 ± 0.00092 | 3900 ± 1500 | 0.000101 ± 2.6e-05 | 0.000242 ± 6.6e-05
10 | C50U C68G | 4.93e-05 ± 1.9e-05 | 6.55e-05 ± 1.1e-05 | 7.89e-05 ± 1.4e-05 | – | – | – | 3.88e-05 ± 1.6e-05
11 | A52C C70G | 3.19e-05 ± 1.1e-05 | 3.3e-05 ± 1e-05 | 4.57e-05 ± 1.4e-05 | – | – | – | –
12 | G44A U54G | 0.000522 ± 0.00012 | 0.000231 ± 7.3e-05 | 0.000634 ± 0.00013 | 0.000438 ± 6.2e-05 | – | – | –
13 | C8A G37C G38A C70U | 1.14e-05 ± 3.5e-06 | – | – | – | – | – | –
14 | G29U U46C | 0.000262 ± 1.5e-05 | 9.83e-05 ± 1.4e-05 | 0.000156 ± 4.3e-05 | 0.000242 ± 2.9e-05 | 1090 ± 140 | – | 3.52e-05 ± 1.6e-05
15 | A33U C71G | 1.4e-05 ± 2.4e-06 | – | – | 1.47e-05 ± 7.1e-06 | – | – | –
16 | C34G C70U | < 1e-05 | – | – | < 1e-05 | – | – | –
17 | A6G A33G | < 1e-05 | – | – | < 1e-05 | – | – | –
18 | G43U C67U | 5.98e-05 ± 3.8e-06 | – | 5.2e-05 ± 1.1e-05 | 5.46e-05 ± 7.3e-06 | 699 ± 280 | – | –
19 | G13A U54C | 0.000629 ± 0.00013 | 0.000134 ± 2.4e-05 | 0.000405 ± 6.2e-05 | 0.000458 ± 7.1e-05 | 2490 ± 920 | – | 2.7e-05 ± 1e-05
